{"source": "FireProtDB (doi:10.1021/bi00015a036)", "parents": {"B1": {"name": "Barstar, P11540 (parent)", "chain": "MKKAVINGEQIRSISDLHQTLKKELALPEYYGENLDALWDCLTGWVEYPLVLEWRQFEQSKQLTENGAESVLQVFREAKAEGCDITIILS"}}}
{"variants_of": "B1", "conditions": "Bacillus amyloliquefaciens; pH 7; Thermal; DSC; PIPES 50 mM; reversible: yes (~80%); structure 1BTA; whole UniProt chain shown", "units": {"Tm": "°C", "unfolding enthalpy (calorimetric)": "kcal/mol"}}
{"variant": "MKKAVINGEQIRSISDLHQTLKKELALPEYYGENLDALWDALTGWVEYPLVLEWRQFEQSKQLTENGAESVLQVFREAKAEGADITIILS", "note": "[C41A C83A]", "Tm": 74, "unfolding enthalpy (calorimetric)": 63.4}
{"variants_of": "B1", "conditions": "Bacillus amyloliquefaciens; pH 10; Thermal; DSC; CAPS 50 mM; reversible: yes (~80%); structure 1BTA; whole UniProt chain shown", "units": {"Tm": "°C", "unfolding enthalpy (calorimetric)": "kcal/mol"}}
{"variant": "MKKAVINGEQIRSISDLHQTLKKELALPEYYGENLDALWDALTGWVEYPLVLEWRQFEQSKQLTENGAESVLQVFREAKAEGADITIILS", "note": "[C41A C83A]", "Tm": 68.6, "unfolding enthalpy (calorimetric)": 58.6}
{"variants_of": "B1", "conditions": "Bacillus amyloliquefaciens; pH 10.3; Thermal; DSC; CAPS 50 mM; reversible: yes (~80%); structure 1BTA; whole UniProt chain shown", "units": {"Tm": "°C", "unfolding enthalpy (calorimetric)": "kcal/mol"}}
{"variant": "MKKAVINGEQIRSISDLHQTLKKELALPEYYGENLDALWDALTGWVEYPLVLEWRQFEQSKQLTENGAESVLQVFREAKAEGADITIILS", "note": "[C41A C83A]", "Tm": 67, "unfolding enthalpy (calorimetric)": 57.4}
{"variants_of": "B1", "conditions": "Bacillus amyloliquefaciens; pH 10.5; Thermal; DSC; CAPS 50 mM; reversible: yes (~80%); structure 1BTA; whole UniProt chain shown", "units": {"Tm": "°C", "unfolding enthalpy (calorimetric)": "kcal/mol"}}
{"variant": "MKKAVINGEQIRSISDLHQTLKKELALPEYYGENLDALWDALTGWVEYPLVLEWRQFEQSKQLTENGAESVLQVFREAKAEGADITIILS", "note": "[C41A C83A]", "Tm": 65.7, "unfolding enthalpy (calorimetric)": 56.2}
